Reference: PMC7881018, “Granulovirus PK-1 kinase activity relies on a side-to-side dimerization mode centered on the regulatory αC helix” (Nature Communications, 2021)

Experiments:
[1] = target: PK-1 E217DNEEE>QNNQQQ, acidic αF-αG loop mutant (Cydia pomonella granulovirus (CpGV)); assay: SEC
[2] = target: PK-1 K49A, full length (Cydia pomonella granulovirus (CpGV)); assay: SEC
[3] = target: Cydia pomonella granulovirus protein kinase-1 (PK-1), full-length wild type (pPROEX Htb construct) (Cydia pomonella granulovirus (CpGV)); assay: SEC
[4] = target: Cydia pomonella granulovirus protein kinase-1 (PK-1), full-length wild type (pPROEX Htb construct) (Cydia pomonella granulovirus (CpGV)); assay: AUC; sedimentation velocity, 0.9 mg/mL (27 μM), 20 °C, 50,000 rpm, 20 mM HEPES pH 7.5, 200 mM NaCl; c(s) model
[5] = target: Cydia pomonella granulovirus protein kinase-1 (PK-1), full-length wild type (pPROEX Htb construct) (Cydia pomonella granulovirus (CpGV)); assay: SAXS with inline SEC; 5 mg/mL (152 μM) injected on Superdex 200 5/150 Increase, 20 mM HEPES pH 7.5, 200 mM NaCl, 5% glycerol, 12 °C; scatter compared with the crystal dimer (CRYSOL), mass by SAXSMoW2
[6] = target: PK-1 D141N, full length (Cydia pomonella granulovirus (CpGV)); assay: SEC
[7] = target: PK-1 15-279, truncated PK-1 lacking the domain-swapped N-terminal helix (Cydia pomonella granulovirus (CpGV)); assay: SEC
[8] = target: T1, CpGV PK-1 (Cydia pomonella granulosis virus (isolate Mexican), UniProt Q91F41); assay: X-ray crystal structure, […] A; assay type: binding; details: co-crystallised with 1 mM AMP and 10 mM MnCl2; ATP site; 18 C
T1 construct: gene orf3 pk-1; full-length (residues 1-279), E. coli expressed; assay protein codon-optimised, His6 tag cut by TEV; crystal protein amplified from genomic DNA, TEV-cleavable His6-MBP tag; homodimer 66 kDa

[9] = target: PK-1 D160N, full length (Cydia pomonella granulovirus (CpGV)); assay: SEC

## PK-1 E217DNEEE>QNNQQQ, acidic αF-αG loop mutant (enzyme)
[1]
  stoichiometry N: 2

## PK-1 K49A, full length (enzyme)
[2]
  stoichiometry N: 2

## Cydia pomonella granulovirus protein kinase-1 (PK-1), full-length wild type (pPROEX Htb construct) (enzyme)
[3]
  stoichiometry N: 2
[4]
  stoichiometry N: 2
[5]
  stoichiometry N: 2

## PK-1 D141N, full length (enzyme)
[6]
  stoichiometry N: 2

## PK-1 15-279, truncated PK-1 lacking the domain-swapped N-terminal helix (domain or fragment)
[7]
  stoichiometry N: 2

## Nc1ncnc2c1ncn2[C@@H]1O[C@H](COP(=O)(O)O)[C@@H](O)[C@H]1O [AMP]
[8]
  X-ray crystal structure, 2.01 A: crystal structure of PK-1 from C. pomonella granulovirus (CpGV) in complex with AMP

## PK-1 D160N, full length (enzyme)
[9]
  stoichiometry N: 2
